Data taken from US20240270821A1, “GIP/GLP1/GCG TRI-RECEPTOR AGONISTS AND USES THEREOF” (priority 2023, published 2024).

Experiments:
Assay in all cases: cell-based or functional assay
[1] = target: T1, human GIP receptor (human) (UniProt P48546)
T1 sequence (looked up): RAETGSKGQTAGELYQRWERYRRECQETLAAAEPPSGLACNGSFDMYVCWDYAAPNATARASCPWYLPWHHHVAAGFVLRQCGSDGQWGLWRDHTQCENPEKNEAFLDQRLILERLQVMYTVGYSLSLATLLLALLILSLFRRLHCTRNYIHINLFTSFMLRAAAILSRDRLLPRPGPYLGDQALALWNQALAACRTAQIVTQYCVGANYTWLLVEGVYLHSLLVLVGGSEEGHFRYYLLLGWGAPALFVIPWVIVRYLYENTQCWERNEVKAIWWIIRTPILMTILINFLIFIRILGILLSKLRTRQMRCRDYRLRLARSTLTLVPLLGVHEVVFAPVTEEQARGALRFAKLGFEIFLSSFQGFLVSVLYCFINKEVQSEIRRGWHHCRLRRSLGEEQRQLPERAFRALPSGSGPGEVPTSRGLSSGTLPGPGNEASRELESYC

[2] = target: hGLP-1R (Homo sapiens, UniProt P43220)
[3] = target: human glucagon receptor (human) (UniProt P47871)
Chain of human glucagon receptor (human) (P47871 26-477): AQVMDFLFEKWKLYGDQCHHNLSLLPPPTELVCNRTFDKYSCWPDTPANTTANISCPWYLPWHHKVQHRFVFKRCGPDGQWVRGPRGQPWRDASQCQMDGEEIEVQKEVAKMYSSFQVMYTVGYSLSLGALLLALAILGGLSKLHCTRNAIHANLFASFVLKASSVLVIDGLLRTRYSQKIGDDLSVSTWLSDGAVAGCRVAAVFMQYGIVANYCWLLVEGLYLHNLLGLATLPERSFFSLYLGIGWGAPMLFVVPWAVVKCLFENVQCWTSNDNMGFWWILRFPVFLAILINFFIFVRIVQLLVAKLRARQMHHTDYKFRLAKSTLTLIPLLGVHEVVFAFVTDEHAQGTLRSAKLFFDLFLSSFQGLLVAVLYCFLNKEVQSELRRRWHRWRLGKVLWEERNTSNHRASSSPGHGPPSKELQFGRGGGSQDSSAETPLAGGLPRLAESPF

Chain of hGLP-1R (P43220 24-463): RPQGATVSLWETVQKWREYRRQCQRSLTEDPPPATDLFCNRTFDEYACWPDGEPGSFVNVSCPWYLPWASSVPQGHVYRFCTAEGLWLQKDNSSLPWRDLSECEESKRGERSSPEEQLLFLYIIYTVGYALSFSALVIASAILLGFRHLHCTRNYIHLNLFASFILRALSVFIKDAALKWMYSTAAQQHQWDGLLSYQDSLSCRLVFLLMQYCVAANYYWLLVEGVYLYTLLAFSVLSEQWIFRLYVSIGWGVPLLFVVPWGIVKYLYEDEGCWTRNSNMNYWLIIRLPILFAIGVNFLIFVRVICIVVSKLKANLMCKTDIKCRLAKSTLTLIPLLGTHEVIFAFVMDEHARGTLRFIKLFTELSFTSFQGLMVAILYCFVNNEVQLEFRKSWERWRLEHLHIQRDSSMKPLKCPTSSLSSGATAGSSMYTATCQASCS

| Binder | Relative cAMP EC50 [1] | cAMP Rel EC50 (in the presence of 1% HSA) [1] | Relative cAMP EC50 [2] | cAMP Rel EC50 (in the presence of 1% HSA) [2] | Relative cAMP EC50 [3] | cAMP Rel EC50 (in the presence of 1% HSA) [3] |
| --- | --- | --- | --- | --- | --- | --- |
| YXQGTXTSDXXIXLDXKAQXEFIEXLIEGGPSSGAPPPSGGGE (non-natural residues, acylated Lys (AEEA-γGlu-C18 diacid), C-terminal amide; synthetic construct; SITE 2: note = 2-Aminoisobutyric Acid; SITE 6: note = alpha-methyl-L-phenylalanine; SITE 10: note = 3-(4-Pyridyl)-L-alanine; SITE 11: note = alpha-methyl-L-serine; SITE 13: note = alpha-methyl-leucine; SITE 16: note = L-ornithine; SITE 17: note = Lysine is chemically modified th) [Example 1168] | 0.00839 nM | 0.999 nM | 0.422 nM | 65.4 nM | 2.63 nM | 364 nM |
| YXQGTXTSDXXIXLDXKAQXEFIEXLIEGGPSSGEPPPSGGGE (non-natural residues; AEEA-γGlu-diacid acylated Lys; C-terminal amide; synthetic construct; SITE 2: note = 2-Aminoisobutyric Acid; SITE 6: note = alpha-methyl-L-phenylalanine; SITE 10: note = 3-(4-Pyridyl)-L-alanine; SITE 11: note = alpha-methyl-L-serine; SITE 13: note = alpha-methyl-leucine; SITE 16: note = L-ornithine; SITE 17: note = Lysine is chemically modified th) [Example 1169] | 0.011 nM | 1.18 nM | 0.613 nM | 80 nM | 2.43 nM | 304 nM |
| YXQGTXTSDXXIXLDXKAQXEFIEXLIEGGPSSGEPPPSGGGE (non-natural residues, lysine acylation, C-terminal amide; synthetic construct; SITE 2: note = 2-Aminoisobutyric Acid; SITE 6: note = alpha-methyl-L-phenylalanine; SITE 10: note = 3-(4-Pyridyl)-L-alanine; SITE 11: note = alpha-methyl-L-serine; SITE 13: note = alpha-methyl-leucine; SITE 16: note = L-ornithine; SITE 17: note = Lysine is chemically modified th) [Example 1175] | 0.00962 nM | 0.768 nM | 0.572 nM | 60.7 nM | 2.08 nM | 282 nM |
| YXQGTXTSDXXIXLDXKAQXEFIEXLIEGGPSSGAPPPSGGGE (non-natural residues; lipidated Lys (γGlu)2-C18 diacid; C-term amide; synthetic construct; SITE 2: note = 2-Aminoisobutyric Acid; SITE 6: note = alpha-methyl-L-phenylalanine; SITE 10: note = 3-(4-Pyridyl)-L-alanine; SITE 11: note = alpha-methyl-L-serine; SITE 13: note = alpha-methyl-leucine; SITE 16: note = L-ornithine; SITE 17: note = Lysine is chemically modified th) [Example 1174] | 0.00896 nM | 0.707 nM | 0.454 nM | 60.2 nM | 2.58 nM | 347 nM |
| YXQGTXTSDXXIXLDXKAQXEFIEXLIEGGPSSGEPPPSGGGE (non-natural residues; Lys acylated C18 diacid; C-terminal amide; synthetic construct; SITE 2: note = 2-Aminoisobutyric Acid; SITE 6: note = alpha-methyl-2-fluoro-L-phenylalanine; SITE 10: note = 3-(4-Pyridyl)-L-alanine; SITE 11: note = alpha-methyl-L-serine; SITE 13: note = alpha-methyl-leucine; SITE 16: note = L-ornithine; SITE 17: note = Lysine is chemically mo) [Example 1181] | 0.0115 nM | 0.666 nM | 0.664 nM | 48.2 nM | 3.34 nM | 203 nM |
| YXQGTXTSDXXIXLDXKAQXEFIEXLIEGGPSSGAPPPSGGGE (acylated Lys, C-terminal amide, non-natural residues; synthetic construct; SITE 2: note = 2-Aminoisobutyric Acid; SITE 6: note = alpha-methyl-2-fluoro-L-phenylalanine; SITE 10: note = 3-(4-Pyridyl)-L-alanine; SITE 11: note = alpha-methyl-L-serine; SITE 13: note = alpha-methyl-leucine; SITE 16: note = L-ornithine; SITE 17: note = Lysine is chemically mo) [Example 1180] | 0.00602 nM | 0.341 nM | 0.445 nM | 35.6 nM | 3.16 nM | 205 nM |
| YXQGTXTSDXXIXLDXKAQXEFIEXLVEGGPSSGAPPPESE (not fully specified; non-natural residues; lipidated Lys; C-terminal amide; synthetic construct; SITE 2: note = 2-Aminoisobutyric Acid; SITE 6: note = alpha-methyl-2-fluoro-L-phenylalanine; SITE 10: note = 3-(4-Pyridyl)-L-alanine; SITE 11: note = alpha-methyl-L-serine; SITE 13: note = alpha-methyl-leucine; SITE 16: note = L-ornithine; SITE 17: note = Lysine is chemically mo) [Example 1156] | 0.0127 nM | 1.33 nM | 0.444 nM | 47.1 nM | 2.94 nM | 337 nM |
| YXQGTXTSDXXIXLDXKAQXEFIEXLVEGGPSSGEPPPEGE (not fully specified; non-natural residues; AEEA-γGlu-C18 diacid on Lys; C-terminal amide; synthetic construct; SITE 2: note = 2-Aminoisobutyric Acid; SITE 6: note = alpha-methyl-2-fluoro-L-phenylalanine; SITE 10: note = 3-(4-Pyridyl)-L-alanine; SITE 11: note = alpha-methyl-L-serine; SITE 13: note = alpha-methyl-leucine; SITE 16: note = L-ornithine; SITE 17: note = Lysine is chemically mo) [Example 1159] | 0.0118 nM | 1.29 nM | 0.45 nM | 64.1 nM | 1.86 nM | 238 nM |
| YXQGTXTSDXXIXLDXKAQXEFIEXLVEGGPSSGAPPPEGE (not fully specified; non-natural residues; AEEA-γGlu-C18 diacid acyl; C-terminal amide; synthetic construct; SITE 2: note = 2-Aminoisobutyric Acid; SITE 6: note = alpha-methyl-2-fluoro-L-phenylalanine …; SITE 10: note = 3-(4-Pyridyl)-L-alanine; SITE 11: note = alpha-methyl-L-serine; SITE 13: note = alpha-methyl-leucine; SITE 16: note = L-ornithine; SITE 17: note = Lysine is chemically mo) [Example 1158] | 0.0126 nM | 1.42 nM | 0.419 nM | 46.8 nM | 2.19 nM | 301 nM |
| YXQGTXTSDXXIXLDXKAQXEFIEXLIEGGPSSGEPPPSGE (non-natural residues; Lys acylated C18 diacid; C-terminal amide; synthetic construct; SITE 2: note = 2-Aminoisobutyric Acid; SITE 6: note = alpha-methyl-2-fluoro-L-phenylalanine; SITE 10: note = 3-(4-Pyridyl)-L-alanine; SITE 11: note = alpha-methyl-L-serine; SITE 13: note = alpha-methyl-leucine; SITE 16: note = L-ornithine; SITE 17: note = Lysine is chemically mo) [Example 1177] | 0.0114 nM | 0.544 nM | 0.681 nM | 43.6 nM | 4.23 nM | 156 nM |
| YXQGTXTSDXXIXLDXKAQXEFIEXLVEGGPSSGEPPPESE (not fully specified; non-natural residues; AEEA-γGlu-diacid acylated Lys; C-terminal amide; synthetic construct; SITE 2: note = 2-Aminoisobutyric Acid; SITE 6: note = alpha-methyl-2-fluoro-L-phenylalanine; SITE 10: note = 3-(4-Pyridyl)-L-alanine; SITE 11: note = alpha-methyl-L-serine; SITE 13: note = alpha-methyl-leucine; SITE 16: note = L-ornithine; SITE 17: note = Lysine is chemically mo) [Example 1157] | 0.0124 nM | 1.28 nM | 0.408 nM | 57.5 nM | 2.04 nM | 384 nM |
| YXQGTXTSDXXIXLDXKAQXEFIEXLIEGGPSSGEPPPSGE (non-natural residues, lysine acylation, C-terminal amide; synthetic construct; SITE 2: note = 2-Aminoisobutyric Acid; SITE 6: note = alpha-methyl-L-phenylalanine; SITE 10: note = 3-(4-Pyridyl)-L-alanine; SITE 11: note = alpha-methyl-L-serine; SITE 13: note = alpha-methyl-leucine; SITE 16: note = L-ornithine; SITE 17: note = Lysine is chemically modified th) [Example 1171] | 0.00953 nM | 0.718 nM | 0.529 nM | 52.9 nM | 2.19 nM | 233 nM |
| YXQGTXTSDXXIXLDXKAQXEFIEXLIEGGPSSGEPPPSGE (non-natural residues; lipidated Lys; C-terminal amide; synthetic construct; SITE 2: note = 2-Aminoisobutyric Acid; SITE 6: note = alpha-methyl-L-phenylalanine; SITE 10: note = 3-(4-Pyridyl)-L-alanine; SITE 11: note = alpha-methyl-L-serine; SITE 13: note = alpha-methyl-leucine; SITE 16: note = L-ornithine; SITE 17: note = Lysine is chemically modified th) [Example 1165] | 0.0121 nM | 1.36 nM | 0.632 nM | 87.7 nM | 2.68 nM | 358 nM |
